The values below are quoted from earlier work in PMC9747160.

The data set deals with APOBEC3B CTD (Homo sapiens) (UniProt Q9UH17). Briefly: BLI. (In general: In BLI a coated tip is dipped into the sample, and binding shifts an interference pattern.)
Chain of UniProt Q9UH17 (Q9UH17 187-382): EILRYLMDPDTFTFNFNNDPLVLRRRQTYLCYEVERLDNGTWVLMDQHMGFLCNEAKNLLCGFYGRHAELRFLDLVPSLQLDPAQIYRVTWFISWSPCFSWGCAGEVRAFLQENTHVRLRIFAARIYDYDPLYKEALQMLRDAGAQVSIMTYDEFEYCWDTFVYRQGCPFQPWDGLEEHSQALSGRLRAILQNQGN

For orientation: Kd means the free concentration of one partner at which half of the binding sites on the other are occupied at equilibrium, for simple one-to-one binding. In the case of BORF2 (from UniProt P03190), the Kd is 1 nM.
